# Measured values: the Human Domainome abundance scans (Beltran et al. 2025)
# ± gives the uncertainty stated by the source.
# B1: RNA-binding E3 ubiquitin-protein ligase MEX3C, residues 325 to 391; numbered along this chain, Q5U5Q3 (parent)
# chain: GQTTVQVRVPYRVVGLVVGPKGATIKRIQQQTHTYIVTPSRDKEPVFEVTGMPENVDRAREEIEMHI
# Variants of: B1
# Assay: abundance fitness (aPCA) (normalised: wild type 0, dead -1); higher = more abundant; growth selection in yeast, the domain comes from the species named
# Conditions: Homo sapiens
row,Variant,abundance fitness
1,GQTTVQVRVPYRVVGLVVGPKGATIKRIQQQTHTYIVTPSRDKEPVFEVTGMPEKVDRAREEIEMHI,-0.647 ± 0.13
2,GQTTVQVRVPYRVVGLVVGPKGATIKRIQQQTHTYIVTPSRDKEPVFEVTGMPETVDRAREEIEMHI,-0.627 ± 0.14
3,GQTTVQVRVPYRVVGLVVGPKGATIKRIQQQTHTYIVTPSRDKEPVFEVTGMPEGVDRAREEIEMHI,-0.281 ± 0.048
4,GQTTVQVRVPYRVVGLVVGPKGATIKRIQQQTHTYIVTPSRDKEPVFEVTGMPEDVDRAREEIEMHI,0.033 ± 0.067
5,GQTTVQVRVPYRVVGLVVGPKGATIKRIQQQTHTYIVTPSRDKEPVFEVTGMPEMVDRAREEIEMHI,-0.541 ± 0.11
6,GQTTVQVRVPYRVVGLVVGPKGATIKRIQQQTHTYIVTPSRDKEPVFEVTGMPEAVDRAREEIEMHI,-0.146 ± 0.064
7,GQTTVQVRVPYRVVGLVVGPKGATIKRIQQQTHTYIVTPSRDKEPVFEVTGMPESVDRAREEIEMHI,-0.426 ± 0.079
8,GQTTVQVRVPYRVVGLVVGPKGATIKRIQQQTHTYIVTPSRDKEPVFEVTGMPEWVDRAREEIEMHI,-1.17 ± 0.48
9,GQTTVQVRVPYRVVGLVVGPKGATIKRIQQQTHTYIVTPSRDKEPVFEVTGMPELVDRAREEIEMHI,-0.885 ± 0.15
10,GQTTVQVRVPYRVVGLVVGPKGATIKRIQQQTHTYIVTPSRDKEPVFEVTGMPEVVDRAREEIEMHI,-0.8 ± 0.11
11,GQTTVQVRVPYRVVGLVVGPKGATIKRIQQQTHTYIVTPSRDKEPVFEVTGMPEFVDRAREEIEMHI,-0.711 ± 0.24
12,GQTTVQVRVPYRVVGLVVGPKGATIKRIQQQTHTYIVTPSRDKEPVFEVTGMPEIVDRAREEIEMHI,-0.646 ± 0.18
13,GQTTVQVRVPYRVVGLVVGPKGATIKRIQQQTHTYIVTPSRDKEPVFEVTGLPENVDRAREEIEMHI,-0.04 ± 0.055
14,GQTTVQVRVPYRVVGLVVGPKGATIKRIQQQTHTYIVTPSRDKEPVFEVTGQPENVDRAREEIEMHI,-0.021 ± 0.095
15,GQTTVQVRVPYRVVGLVVGPKGATIKRIQQQTHTYIVTPSRDKEPVFEVTGYPENVDRAREEIEMHI,-0.19 ± 0.13
16,GQTTVQVRVPYRVVGLVVGPKGATIKRIQQQTHTYIVTPSRDKEPVFEVTGKPENVDRAREEIEMHI,-0.075 ± 0.083
17,GQTTVQVRVPYRVVGLVVGPKGATIKRIQQQTHTYIVTPSRDKEPVFEVTGNPENVDRAREEIEMHI,-0.99 ± 0.49
18,GQTTVQVRVPYRVVGLVVGPKGATIKRIQQQTHTYIVTPSRDKEPVFEVTGVPENVDRAREEIEMHI,-0.482 ± 0.082
19,GQTTVQVRVPYRVVGLVVGPKGATIKRIQQQTHTYIVTPSRDKEPVFEVTGRPENVDRAREEIEMHI,-0.167 ± 0.044
20,GQTTVQVRVPYRVVGLVVGPKGATIKRIQQQTHTYIVTPSRDKEPVFEVTGHPENVDRAREEIEMHI,-0.515 ± 0.33

row,Variant,abundance fitness
1,GQTTVQVRVPYRVVGLVVGPKGATIKRIQQQTHTYIVTPSRDKEPVFEVTGIPENVDRAREEIEMHI,-0.183 ± 0.17
2,GQTTVQVRVPYRVVGLVVGPKGATIKRIQQQTHTYIVTPSRDKEPVFEVTGWPENVDRAREEIEMHI,-0.369 ± 0.068
3,GQTTVQVRVPYRVVGLVVGPKGATIKRIQQQTHTYIVTPSRDKEPVFEVTGSPENVDRAREEIEMHI,0.006 ± 0.073
4,GQTTVQVRVPYRVVGLVVGPKGATIKRIQQQTHTYIVTPSRDKEPVFEVTGTPENVDRAREEIEMHI,0.185 ± 0.071
5,GQTTVQVRVPYRVVGLVVGPKGATIKRIQQQTHTYIVTPSRDKEPVFEVTGMNENVDRAREEIEMHI,-0.295 ± 0.21
6,GQTTVQVRVPYRVVGLVVGPKGATIKRIQQQTHTYIVTPSRDKEPVFEVTGMKENVDRAREEIEMHI,-0.012 ± 0.1
7,GQTTVQVRVPYRVVGLVVGPKGATIKRIQQQTHTYIVTPSRDKEPVFEVTGMQENVDRAREEIEMHI,-0.173 ± 0.079
8,GQTTVQVRVPYRVVGLVVGPKGATIKRIQQQTHTYIVTPSRDKEPVFEVTGMRENVDRAREEIEMHI,-0.167 ± 0.05
9,GQTTVQVRVPYRVVGLVVGPKGATIKRIQQQTHTYIVTPSRDKEPVFEVTGMFENVDRAREEIEMHI,-0.488 ± 0.16
10,GQTTVQVRVPYRVVGLVVGPKGATIKRIQQQTHTYIVTPSRDKEPVFEVTGMIENVDRAREEIEMHI,-0.689 ± 0.25
11,GQTTVQVRVPYRVVGLVVGPKGATIKRIQQQTHTYIVTPSRDKEPVFEVTGMDENVDRAREEIEMHI,-0.597 ± 0.27
12,GQTTVQVRVPYRVVGLVVGPKGATIKRIQQQTHTYIVTPSRDKEPVFEVTGMWENVDRAREEIEMHI,-0.871 ± 0.17
13,GQTTVQVRVPYRVVGLVVGPKGATIKRIQQQTHTYIVTPSRDKEPVFEVTGMVENVDRAREEIEMHI,-0.734 ± 0.13
14,GQTTVQVRVPYRVVGLVVGPKGATIKRIQQQTHTYIVTPSRDKEPVFEVTGMCENVDRAREEIEMHI,-0.514 ± 0.13
15,GQTTVQVRVPYRVVGLVVGPKGATIKRIQQQTHTYIVTPSRDKEPVFEVTGMAENVDRAREEIEMHI,-0.141 ± 0.057
16,GQTTVQVRVPYRVVGLVVGPKGATIKRIQQQTHTYIVTPSRDKEPVFEVTGMSENVDRAREEIEMHI,-0.279 ± 0.077
17,GQTTVQVRVPYRVVGLVVGPKGATIKRIQQQTHTYIVTPSRDKEPVFEVTGMMENVDRAREEIEMHI,-0.433 ± 0.11
18,GQTTVQVRVPYRVVGLVVGPKGATIKRIQQQTHTYIVTPSRDKEPVFEVTGMGENVDRAREEIEMHI,-0.541 ± 0.082
19,GQTTVQVRVPYRVVGLVVGPKGATIKRIQQQTHTYIVTPSRDKEPVFEVTGMTENVDRAREEIEMHI,-0.375 ± 0.087
20,GQTTVQVRVPYRVVGLVVGPKGATIKRIQQQTHTYIVTPSRDKEPVFEVTGMPENVARAREEIEMHI,0.151 ± 0.055
